Reference: publication PMC8657982, “Overlap and Specificity in the Substrate Spectra of Human Monoamine Transporters and Organic Cation Transporters 1, 2, and 3” (International Journal of Molecular Sciences, 2021)

Assays:
[1] = test system: NET; parameters: method as in PMID 31265842; conditions: cited from earlier work
[2] = test system: DAT; parameters: method as in PMID 31265842; conditions: cited from earlier work
[3] = target: DAT (Homo sapiens, UniProt Q01959); test: Uptake into HEK293 cells overexpressing DAT (uptake ratio and concentration-dependent uptake); conditions: for Clint ± SEM: intrinsic clearance, quotient of vmax and Km
[4] = target: NET (Homo sapiens, UniProt P23975); test: Uptake into HEK293 cells overexpressing NET (uptake ratio and concentration-dependent uptake); conditions: intrinsic clearance, quotient of vmax and Km
[5] = target: SERT (Homo sapiens, UniProt P31645); test: Uptake into HEK293 cells overexpressing SERT (uptake ratio and concentration-dependent uptake);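 also: incubation at 37 °C, intracellular compound quantified by HPLC-MS/MS after cell lysis, uptake normalized to total protein measured by bicinchoninic acid assay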;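 as to Uptake Ratio by Transporter SERT: ratio of uptake in SERT cells over empty-vector control cells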
[6] = target: T1, OCT1 (Homo sapiens, UniProt O15245); test: Uptake into HEK293 cells overexpressing OCT1 (uptake ratio and concentration-dependent uptake); conditions: intrinsic clearance, quotient of vmax and Km
T1 sequence (O15245 1-554): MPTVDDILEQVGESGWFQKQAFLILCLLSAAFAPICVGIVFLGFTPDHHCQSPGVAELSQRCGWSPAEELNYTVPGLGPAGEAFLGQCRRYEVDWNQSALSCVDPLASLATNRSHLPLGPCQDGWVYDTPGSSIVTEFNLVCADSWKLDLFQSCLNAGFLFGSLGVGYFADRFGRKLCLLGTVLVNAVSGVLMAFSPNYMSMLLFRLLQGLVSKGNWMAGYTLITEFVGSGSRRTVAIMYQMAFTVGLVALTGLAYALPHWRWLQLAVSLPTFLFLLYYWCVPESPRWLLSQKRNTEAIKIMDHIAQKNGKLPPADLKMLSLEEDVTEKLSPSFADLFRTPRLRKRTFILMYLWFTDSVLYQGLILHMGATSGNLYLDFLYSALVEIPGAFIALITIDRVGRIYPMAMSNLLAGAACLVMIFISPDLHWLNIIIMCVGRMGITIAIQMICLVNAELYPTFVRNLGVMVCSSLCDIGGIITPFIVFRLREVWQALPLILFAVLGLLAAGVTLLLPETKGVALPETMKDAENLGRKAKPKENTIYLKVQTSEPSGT

[7] = target: T2, OCT3 (Homo sapiens, UniProt O75751); test: Uptake into HEK293 cells overexpressing OCT3 (uptake ratio and concentration-dependent uptake); conditions: intrinsic clearance, quotient of vmax and Km
T2 sequence (O75751 1-556): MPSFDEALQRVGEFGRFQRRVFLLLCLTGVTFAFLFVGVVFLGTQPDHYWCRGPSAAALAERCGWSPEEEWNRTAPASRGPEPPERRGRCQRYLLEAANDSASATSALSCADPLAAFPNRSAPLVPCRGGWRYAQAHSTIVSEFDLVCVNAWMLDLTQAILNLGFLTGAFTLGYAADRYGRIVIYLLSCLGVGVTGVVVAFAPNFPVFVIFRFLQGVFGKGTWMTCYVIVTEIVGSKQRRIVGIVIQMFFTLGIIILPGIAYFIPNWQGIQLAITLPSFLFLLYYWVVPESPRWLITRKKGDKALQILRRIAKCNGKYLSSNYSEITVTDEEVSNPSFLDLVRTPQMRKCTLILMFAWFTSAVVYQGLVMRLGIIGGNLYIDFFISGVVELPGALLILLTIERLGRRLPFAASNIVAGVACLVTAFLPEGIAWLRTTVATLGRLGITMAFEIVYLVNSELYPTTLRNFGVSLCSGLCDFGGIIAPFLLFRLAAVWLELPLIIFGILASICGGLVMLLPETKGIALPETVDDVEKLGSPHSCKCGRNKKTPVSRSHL

[8] = target: T3, OCT2 (Homo sapiens, UniProt O15244); test: Uptake into HEK293 cells overexpressing OCT2 (uptake ratio and concentration-dependent uptake); conditions: intrinsic clearance, quotient of vmax and Km
T3 sequence (O15244 1-555): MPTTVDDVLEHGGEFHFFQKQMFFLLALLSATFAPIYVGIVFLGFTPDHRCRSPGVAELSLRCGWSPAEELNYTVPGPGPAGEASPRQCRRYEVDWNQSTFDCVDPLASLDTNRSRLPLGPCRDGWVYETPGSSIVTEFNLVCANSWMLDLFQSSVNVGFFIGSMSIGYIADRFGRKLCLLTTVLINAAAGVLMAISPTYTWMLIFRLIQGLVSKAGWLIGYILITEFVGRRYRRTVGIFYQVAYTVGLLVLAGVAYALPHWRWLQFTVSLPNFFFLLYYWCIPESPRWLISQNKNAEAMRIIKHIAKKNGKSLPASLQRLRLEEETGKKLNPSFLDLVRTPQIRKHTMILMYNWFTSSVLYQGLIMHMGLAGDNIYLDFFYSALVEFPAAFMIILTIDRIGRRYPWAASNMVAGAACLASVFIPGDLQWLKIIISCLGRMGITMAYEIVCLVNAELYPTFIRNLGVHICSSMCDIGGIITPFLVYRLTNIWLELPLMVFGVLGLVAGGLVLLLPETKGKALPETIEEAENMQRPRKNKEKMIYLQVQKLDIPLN

[9] = test system: NCCc1c[nH]c2ccccc12; test: cells, lysate or membranes; conditions: other: SERT; concentration-dependent net uptake, Michaelis–Menten; pH 7.4;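 as to Uptake Ratio by Transporter SERT: incubation at 37 °C, intracellular compound quantified by HPLC-MS/MS after cell lysis, uptake normalized to total protein measured by bicinchoninic acid assay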;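 as to Uptake Ratio by Transporter SERT: ratio of uptake in SERT cells over empty-vector control cells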
[10] = test system: N=C(N)NCc1cccc(I)c1; test: cells, lysate or membranes; conditions: other: SERT; concentration-dependent net uptake, Michaelis–Menten; pH 7.4;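 as to Uptake Ratio by Transporter SERT: incubation at 37 °C, intracellular compound quantified by HPLC-MS/MS after cell lysis, uptake normalized to total protein measured by bicinchoninic acid assay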;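 as to Uptake Ratio by Transporter SERT: ratio of uptake in SERT cells over empty-vector control cells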
[11] = test system: CN[C@@H]1CCc2[nH]c3ccc(C(N)=O)cc3c2C1; test: cells, lysate or membranes; conditions: other: SERT; concentration-dependent net uptake, Michaelis–Menten; pH 7.4;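 as to Uptake Ratio by Transporter SERT: incubation at 37 °C, intracellular compound quantified by HPLC-MS/MS after cell lysis, uptake normalized to total protein measured by bicinchoninic acid assay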;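 as to Uptake Ratio by Transporter SERT: ratio of uptake in SERT cells over empty-vector control cells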
[12] = test system: CNCCc1c[nH]c2ccc(O)cc12; test: cells, lysate or membranes; conditions: pH 7.4
[13] = substrate: NCCc1ccccc1; test: cells, lysate or membranes; conditions: other: DAT; concentration-dependent net uptake, Michaelis–Menten; pH 7.4
[14] = substrate: CNCCc1c[nH]c2ccc(O)cc12; test: cells, lysate or membranes; conditions: other: DAT; concentration-dependent net uptake, Michaelis–Menten; pH 7.4
[15] = substrate: N=C(N)NCc1cccc(I)c1; test: cells, lysate or membranes; conditions: other: DAT; concentration-dependent net uptake, Michaelis–Menten; pH 7.4
[16] = substrate: NCCc1c[nH]c2ccc(O)cc12; test: cells, lysate or membranes; conditions: other: DAT; concentration-dependent net uptake, Michaelis–Menten; pH 7.4
[17] = substrate: NCCc1ccc(O)c(O)c1; test: cells, lysate or membranes; conditions: other: DAT; concentration-dependent net uptake, Michaelis–Menten; pH 7.4

NET (Homo sapiens, UniProt P23975), sequence (P23975 whole entry): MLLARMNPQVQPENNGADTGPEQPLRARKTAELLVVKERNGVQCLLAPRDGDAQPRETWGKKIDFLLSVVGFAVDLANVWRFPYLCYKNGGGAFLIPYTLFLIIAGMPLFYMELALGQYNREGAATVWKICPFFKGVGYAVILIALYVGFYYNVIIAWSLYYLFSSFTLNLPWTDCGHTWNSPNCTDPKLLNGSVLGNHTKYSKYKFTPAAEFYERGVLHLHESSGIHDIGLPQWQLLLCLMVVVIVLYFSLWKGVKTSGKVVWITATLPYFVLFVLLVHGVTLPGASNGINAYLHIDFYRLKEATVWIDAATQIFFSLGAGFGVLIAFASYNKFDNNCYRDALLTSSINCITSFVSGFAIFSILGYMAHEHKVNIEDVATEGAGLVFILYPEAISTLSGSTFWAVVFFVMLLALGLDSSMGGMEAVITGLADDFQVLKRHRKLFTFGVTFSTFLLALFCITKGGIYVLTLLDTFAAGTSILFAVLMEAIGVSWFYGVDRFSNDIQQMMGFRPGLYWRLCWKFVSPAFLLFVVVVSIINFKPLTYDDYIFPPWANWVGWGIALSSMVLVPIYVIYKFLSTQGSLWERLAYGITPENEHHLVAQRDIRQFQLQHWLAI
SERT, sequence (P31645 whole entry): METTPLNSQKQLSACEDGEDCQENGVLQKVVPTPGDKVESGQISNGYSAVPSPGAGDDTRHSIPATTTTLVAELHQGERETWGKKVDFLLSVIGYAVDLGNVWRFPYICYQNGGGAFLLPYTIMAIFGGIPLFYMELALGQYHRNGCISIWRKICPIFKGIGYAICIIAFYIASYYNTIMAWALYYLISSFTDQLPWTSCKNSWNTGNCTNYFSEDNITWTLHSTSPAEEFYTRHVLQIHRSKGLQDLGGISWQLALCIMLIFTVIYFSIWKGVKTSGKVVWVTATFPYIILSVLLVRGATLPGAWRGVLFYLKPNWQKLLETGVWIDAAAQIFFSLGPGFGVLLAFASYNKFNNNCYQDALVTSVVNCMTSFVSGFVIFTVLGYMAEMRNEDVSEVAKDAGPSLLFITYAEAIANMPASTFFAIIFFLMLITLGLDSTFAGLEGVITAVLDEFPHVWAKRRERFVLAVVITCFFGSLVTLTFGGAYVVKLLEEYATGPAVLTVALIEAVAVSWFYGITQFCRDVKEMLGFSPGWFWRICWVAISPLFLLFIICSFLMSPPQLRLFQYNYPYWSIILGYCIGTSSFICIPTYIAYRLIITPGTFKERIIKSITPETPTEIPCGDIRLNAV

In the case of `NCCc1ccccc1` [Phenylethylamine], the “NET inhibition IC50” value [1] is listed as “low micromolar range”, the “DAT inhibition IC50” value [2] is listed as “low micromolar range” and the “Clint ± SEM” value [3] is listed as 2.1 mL × g Protein^−1 × min^−1. For the same molecule, the “Clint ± SEM” value [4] was 3.4 mL × g Protein^−1 × min^−1 and the “Uptake Ratio by Transporter SERT” value [5] was 1.71.

For `NC(N)=NCc1cccc(I)c1` [mIBG, meta-iodobenzylguanidine, reference compound], the “Clint ± SEM” value [6] was 138 ± 38.5 mL × g Protein^−1 × min^−1, the “Clint ± SEM” value [7] was 161 ± 35.7 mL × g Protein^−1 × min^−1 and the “Vmax ± SEM” value ([3]; concentration-dependent net uptake, Michaelis–Menten) was 2800 pmol × mg Protein^−1 × min^−1. The “Clint ± SEM” value [3] was 229 ± 33.8 mL × g Protein^−1 × min^−1, the “Clint ± SEM” value [8] was 152 ± 34.1 mL × g Protein^−1 × min^−1 and the “Clint ± SEM” value [4] was 284 mL × g Protein^−1 × min^−1. The “Clint ± SEM” value ([4]; listed as meta-iodobenzylguanidine) was 284.6 ± 84.2 mL × g Protein^−1 × min^−1 and the “Clint ± SEM” value ([5]; SERT, intrinsic clearance, quotient of vmax and Km) was 38.2 ± 25.9 mL × g Protein^−1 × min^−1.

With SERT (Homo sapiens) the Km [9] was 29.0 µM, the Vmax [9] was 634.6 pmol × mg Protein^−1 × min^−1 and the Km [10] was 11.2 ± 6.2 µM. It also gave a Vmax [10] of 0.000429 µmol/min/mg, a Vmax/Km [10] of 38.2 µL/min/mg and a Km [11] of 26.51 µM. For the same molecule, the Vmax [11] was 1020 pmol × mg Protein^−1 × min^−1, the Km [12] was 4.065 ± 1.829 µM and the Vmax [12] was 1373.0 pmol × mg Protein^−1 × min^−1.

B1: DAT (Homo sapiens) (protein)
chain: MSKSKCSVGLMSSVVAPAKEPNAVGPKEVELILVKEQNGVQLTSSTLTNPRQSPVEAQDRETWGKKIDFLLSVIGFAVDLANVWRFPYLCYKNGGGAFLVPYLLFMVIAGMPLFYMELALGQFNREGAAGVWKICPILKGVGFTVILISLYVGFFYNVIIAWALHYLFSSFTTELPWIHCNNSWNSPNCSDAHPGDSSGDSSGLNDTFGTTPAAEYFERGVLHLHQSHGIDDLGPPRWQLTACLVLVIVLLYFSLWKGVKTSGKVVWITATMPYVVLTALLLRGVTLPGAIDGIRAYLSVDFYRLCEASVWIDAATQVCFSLGVGFGVLIAFSSYNKFTNNCYRDAIVTTSINSLTSFSSGFVVFSFLGYMAQKHSVPIGDVAKDGPGLIFIIYPEAIATLPLSSAWAVVFFIMLLTLGIDSAMGGMESVITGLIDEFQLLHRHRELFTLFIVLATFLLSLFCVTNGGIYVFTLLDHFAAGTSILFGVLIEAIGVAWFYGVGQFSDDIQQMTGQRPSLYWRLCWKLVSPCFLLFVVVVSIVTFRPPHYGAYIFPDWANALGWVIATSSMAMVPIYAAYKFCSLPGSFREKLAYAIAPEKDRELVDRGEVRQFTLRHWLKV
With B1 the Km [13] was 156 µM, the Vmax [13] was 325 pmol × mg Protein^−1 × min^−1 and the Km [14] was 43.82 ± 14.39 µM. The Vmax [14] was 3560 pmol × mg Protein^−1 × min^−1, the Km [15] was 12.2 ± 1.46 µM and the Vmax [15] was 0.0028 µmol/min/mg. For the same molecule, the Vmax/Km [15] was 229 µL/min/mg, the Km [16] was 50.50 µM and the Vmax [16] was 3908 pmol × mg Protein^−1 × min^−1. For the same molecule, the Km [17] was 25.1 µM and the Vmax [17] was 1977 pmol × mg Protein^−1 × min^−1.
